The target of test [1] is mouse FcγRI (CD64), histidine-tagged recombinant (mouse) (UniProt P26151). Briefly: SPR; His-tagged Fc receptor captured by anti-histidine antibody immobilised on CM5; antibody injected at 100 μg/mL for 1 min; response about 5 s before end of injection, blank subtracted; 25°C, HBS-EP+; Biacore T200.
In test [2] the target is rat FcγRI (CD64), histidine-tagged recombinant (rat). The test is described as above.
Test [3] deals with human FcγRIIb (CD32b), histidine-tagged recombinant (human) (UniProt P31994).
Test [4] has as its target human FcγRIIIa (CD16a) V158 allele, histidine-tagged recombinant (human) (UniProt P08637).
The target of test [5] is human FcγRIIIa (CD16a) F158 allele, histidine-tagged recombinant (human) (UniProt P08637). As to the kind of experiment: SPR; His-tagged Fc receptor captured by anti-histidine antibody immobilised on CM5; antibody injected at 100 μg/mL for 1 min; response about 5 s before end of injection, blank subtracted; 25°C, HBS-EP+; Biacore T200. In general terms: Surface plasmon resonance follows binding to a sensor surface in real time, without labels.

Test [6] addresses human FcγRIIIa (CD16a) V158 allele, histidine-tagged recombinant (human) (UniProt P08637). The description is as above.
Test [7] deals with human FcγRIIb (CD32b), histidine-tagged recombinant (human) (UniProt P31994). The description is as above.
In test [8] the target is human FcγRIIa (CD32a) R131 allele, histidine-tagged recombinant (human) (UniProt P12318). The description is as above.
The target in test [9] is human FcγRIIIb (CD16b) NA2 allele, histidine-tagged recombinant (human) (UniProt O75015). The description is as above.
For test [10], the target named is human FcγRI (CD64), histidine-tagged recombinant (human) (UniProt P12314). Described as above.
The target is the same in test [11]. The description is as above. This is another data set of the same source.
For test [12] the target is unchanged.
In test [13] the target is human FcRn, histidine-tagged recombinant (human) (UniProt P55899). Briefly: SPR; human FcRn immobilised directly on CM5 (EDC/NHS); antibody injected at 20 μg/mL (dose response in Fig 4); HBS-EP+ pH 6.0, 25°C; response normalised to wild type.

Where two headings read alike, the source gives them in different places.

human FcγRIIIa (CD16a) F158 allele, histidine-tagged recombinant (human), sequence (P08637 17-208): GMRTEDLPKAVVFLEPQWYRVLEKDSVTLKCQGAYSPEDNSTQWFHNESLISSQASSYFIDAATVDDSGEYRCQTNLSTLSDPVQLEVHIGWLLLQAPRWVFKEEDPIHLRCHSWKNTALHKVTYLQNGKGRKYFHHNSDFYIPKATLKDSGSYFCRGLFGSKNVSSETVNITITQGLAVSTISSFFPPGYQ
human FcγRIIIa (CD16a) V158 allele, histidine-tagged recombinant (human), sequence (P08637 17-208): as above
human FcγRIIa (CD32a) R131 allele, histidine-tagged recombinant (human), sequence (P12318 34-217): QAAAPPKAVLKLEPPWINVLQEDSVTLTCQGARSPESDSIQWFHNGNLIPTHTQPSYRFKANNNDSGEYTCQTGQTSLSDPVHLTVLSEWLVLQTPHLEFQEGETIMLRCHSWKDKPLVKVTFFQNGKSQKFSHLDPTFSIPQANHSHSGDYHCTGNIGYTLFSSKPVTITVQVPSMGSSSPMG
human FcγRIIb (CD32b), histidine-tagged recombinant (human), sequence (P31994 43-217): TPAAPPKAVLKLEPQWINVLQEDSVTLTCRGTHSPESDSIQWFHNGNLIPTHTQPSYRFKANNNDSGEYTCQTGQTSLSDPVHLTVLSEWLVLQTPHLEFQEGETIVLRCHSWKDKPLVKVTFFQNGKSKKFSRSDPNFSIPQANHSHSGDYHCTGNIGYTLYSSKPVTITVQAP
human FcγRIIIb (CD16b) NA2 allele, histidine-tagged recombinant (human), sequence (O75015 17-200): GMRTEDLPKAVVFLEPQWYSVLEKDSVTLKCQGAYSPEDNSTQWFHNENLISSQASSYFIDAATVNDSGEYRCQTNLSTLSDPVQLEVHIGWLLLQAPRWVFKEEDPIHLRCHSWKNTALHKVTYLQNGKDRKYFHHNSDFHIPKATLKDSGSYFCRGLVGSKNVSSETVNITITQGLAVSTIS
human FcRn, histidine-tagged recombinant (human), sequence (P55899 24-297, chain 1 of 2): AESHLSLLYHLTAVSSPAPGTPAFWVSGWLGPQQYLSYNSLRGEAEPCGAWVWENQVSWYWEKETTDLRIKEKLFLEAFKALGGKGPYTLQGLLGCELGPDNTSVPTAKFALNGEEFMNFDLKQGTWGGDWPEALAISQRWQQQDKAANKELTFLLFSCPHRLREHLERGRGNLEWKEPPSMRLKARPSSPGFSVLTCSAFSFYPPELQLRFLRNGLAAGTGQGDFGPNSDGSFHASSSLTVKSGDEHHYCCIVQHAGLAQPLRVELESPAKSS
human FcRn, histidine-tagged recombinant (human), sequence (P61769 21-119, chain 2 of 2, further chain): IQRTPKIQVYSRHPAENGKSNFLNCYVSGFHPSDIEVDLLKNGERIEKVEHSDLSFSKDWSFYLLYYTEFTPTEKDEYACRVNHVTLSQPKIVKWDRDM
mouse FcγRI (CD64), histidine-tagged recombinant (mouse), sequence (P26151 25-297): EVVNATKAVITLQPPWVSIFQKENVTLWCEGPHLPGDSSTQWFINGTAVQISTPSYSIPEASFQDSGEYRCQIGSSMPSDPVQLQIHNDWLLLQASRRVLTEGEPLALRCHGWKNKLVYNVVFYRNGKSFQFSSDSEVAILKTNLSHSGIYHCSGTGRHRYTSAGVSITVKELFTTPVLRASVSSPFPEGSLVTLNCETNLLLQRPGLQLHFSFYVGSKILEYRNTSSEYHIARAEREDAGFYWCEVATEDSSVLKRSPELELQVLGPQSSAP
human FcγRI (CD64), histidine-tagged recombinant (human), sequence (P12314 16-292): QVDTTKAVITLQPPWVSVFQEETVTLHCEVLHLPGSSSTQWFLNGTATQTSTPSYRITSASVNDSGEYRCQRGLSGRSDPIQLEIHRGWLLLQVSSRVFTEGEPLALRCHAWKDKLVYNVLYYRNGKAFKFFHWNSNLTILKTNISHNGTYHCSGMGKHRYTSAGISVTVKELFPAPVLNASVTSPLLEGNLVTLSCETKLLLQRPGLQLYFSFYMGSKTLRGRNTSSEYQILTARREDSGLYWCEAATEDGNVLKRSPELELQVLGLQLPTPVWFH

Turning to “anti-CD20 IgG1 L234A/L235A (LALA) (antibody)”, the mean response in [1] is -12.2 RU; in test [2], -5.3 RU. Besides, the Mean normalised luminescence (% of wild-type reference); Promega Fc effector bioassay, Jurkat NFAT-luciferase cells with the receptor + Raji cells, antibody 10 μg/mL in test [3] stood at 40.6%.

Turning to “anti-CD20 IgG1 L234A/L235A/P329G (LALAPG) (antibody)”, the figures for the mean response in test [1] and in test [2] were 2.4 RU and 0.7 RU, respectively. For the same substance, the Mean normalised luminescence (% of wild-type reference); Promega Fc effector bioassay, Jurkat NFAT-luciferase cells with the receptor + Raji cells, antibody 10 μg/mL stood at 2.1% in test [4] and 1.7% in test [3].

With “anti-CD20 IgG1 L234G/L235S/G236R (antibody)”, the mean response in test [1] was -2.1 RU; in test [5] it was 1 RU; in test [6], 1 RU; in test [2], -3.9 RU; in test [7], -0.1 RU; in test [8] it was 2.1 RU. The mean response in test [9] was -1.6 RU; in [10], -1.5 RU; in test [11], 1.9 RU. Further, the Mean normalised luminescence (% of wild-type reference); Promega Fc effector bioassay, Jurkat NFAT-luciferase cells with the receptor + Raji cells, antibody 10 μg/mL in test [4] stood at 2.5%; in [3], 1.7%.

As for “anti-CD20 IgG1 L234T/L235T/G236R (antibody)”, the mean response was 1.6 RU in test [5]; -0.2 RU in test [6]; -0.8 RU in test [2]; 0.6 RU in test [7]; 1.9 RU in test [8]; -0.1 RU in test [9]. Also, the mean response in test [10] is -2.7 RU. Further, the Mean normalised luminescence (% of wild-type reference); Promega Fc effector bioassay, Jurkat NFAT-luciferase cells with the receptor + Raji cells, antibody 10 μg/mL in test [3] and in test [12] was 1.9% each time.

For the substance “anti-CD20 IgG1 N297Q (aglycosyl) (antibody)”, the Mean normalised luminescence (% of wild-type reference); Promega Fc effector bioassay, Jurkat NFAT-luciferase cells with the receptor + Raji cells, antibody 10 μg/mL in test [3] stood at 1.6%.

Consider “anti-CD52 IgG1 L234S/L235T/G236R (antibody)”, for which the mean response in [1] is -4.6 RU; in test [5], -3.3 RU; in test [6] it was -5.6 RU; in [2] it was -2.9 RU; in test [7], -4.4 RU; in [8] it was -3.1 RU. The mean response is -4.3 RU in [9] and -5.1 RU in [10]. Further, the mean normalised binding response (% of wild-type reference) in [13] amounted to 116%.

Consider “anti-CD52 IgG1 L234S/L235V/G236R (antibody)”, for which the mean response is -2.5 RU in [1]; 2.2 RU in test [5]; -1.3 RU in test [6]; -2.1 RU in test [2]; 2.4 RU in [7]; -4.2 RU in test [8]. For the same substance, the figures for the mean response in test [9] and in [10] were 2.6 RU and -20.3 RU, respectively. Also, the mean normalised binding response (% of wild-type reference) in test [13] turned out to be 119%.

Take “anti-CD52 IgG1 L234T/L235Q/G236R (antibody)”: the mean response was -1.4 RU in test [1]; 0.7 RU in test [5]; -3.1 RU in [6]; 0.5 RU in [2]; 1.3 RU in test [7]; -2.2 RU in [8]. Besides, the mean response in [9] was 0.4 RU; in test [10] it was -10.6 RU. In test [13], the mean normalised binding response (% of wild-type reference) is 115%.

On to “anti-CD52 IgG1 L234T/L235T/G236R (antibody)”, for which the mean response in test [1] is -3.9 RU; in test [5], -1.9 RU; in test [6] it was -2 RU; in [2], -3.4 RU; in test [7], -0.1 RU; in test [8], -8.7 RU. Further, the results for the mean response in test [9] and in test [10] were 0.8 RU and -20.7 RU, respectively. Further, the mean normalised binding response (% of wild-type reference) in [13] came to 118%.

(Values after paper PMC8691596.)
